Assay results as given in patent US20080274096A1, “Fusion Proteins Having a Modulated Half-Life in Plasma” (ASTRAZENECA AB, priority 2005, published 2008).

Tests used:
[1] = system: amyloid β1-40 peptide; assay: Degradation of amyloid β1-40 peptide by soluble Neprilysin in a buffer system; assay type: biochemical; details: Neprilysin 1.8 μg/ml; Amyloid β1-40 peptide (1 nM); 3 hours incubation at 37° C.
Experimental: Following incubation, 50 μl of antibodies solution containing anti-Aβ40 (final concentration 0.125 μg/ml; Biosource) and Biotinylated 6E10 (final concentration 0.125 μg/ml; Signet) antibodies was added to each well. Plate was incubated at RT for 3 h. Following incubation, 50 μl of detection mixture of Dynabeads M280 (Dynal Biotech ASA) and secondary antibody Ru-GαR (final concentration 0.132 μg/ml) was added to all wells. Plate was incubated on a shaker at RT for 1 h and results were recorded on IGEN/Bio […]8 analyser. Amyloid β1-40 peptide degradation by Neprilysin was calculated as a percentage of Amyloid β1-40 peptide left after incubation in the presence of Neprilysin compared to the amyloid β1-40 peptide concentration in the absence of Neprilysin.

[2] = system: amyloid β peptide1-40 (Aβ40); assay: Degradation of Aβ1-40 in guinea pig plasma by neprilysin; assay type: biochemical
Experimental: (§1) Degradation of amyloid β peptide1-40 (Aβ40) and amyloid β peptide1-42 (Aβ42) by neprilysin was investigated using heparinized plasma from male Dunkin Hartley guinea pigs, weighing 250-300 g (HBLidköping ka). Blood was withdrawn from anaesthetized guinea pigs by heart puncture. The blood were collected into prechilled heparin-plasma tubes and centrifuged for 10 min at 4° C. at 3000×g within 20 minutes of sampling. Plasma samples were transferred to pre-chilled polypropylene tubes and immediately frozen on dry ice and stored at −70° C. prior to use. The experiments were performed on a pool of plasma from 5-6 guinea pigs. […] A final concentration of 4.7 mM EDTA was added into the tubes before the amount of Aβ1-40 or Aβ1-42 was analyzed by using commercial ELISA kits obtained from Biosource (Aβ1-40) or Innogenetics (Aβ1-42).

[3] = system: amyloid β peptide1-42 (Aβ42); assay: Degradation of Aβ1-42 in guinea pig plasma by neprilysin; assay type: biochemical; details: 5 μg/ml neprilysin, 0-360 minutes at 37° C.
Experimental: as §1

[4] = system: fluorogenic peptide substrate V-Mca-Arg-Pro-Gly-Phe-Ser-Ala-Phe-Lys(Dnp)-OH; assay: Neprilysin enzyme activity FRET assay; assay type: biochemical; details: purification with addition of 200 μM ZnCl2 versus without
Experimental: Neprilysin is affinity purified directly from the culture supernatants. Soluble Neprilysin is purified using biotinylated anti-neprilysin antibody (R&D Systems) bound to […] sepharose (GE Healthcare). 14 μg biotinylated anti-neprilysin antibody (R&D systems) was added to 140 μl streptavidin sepharose slurry (GE Healthcare) and incubated during gentle mixing for 2 hours, in room temperature. The sepharose was washed twice and resuspended in 140 μl PBS. The sepharose slurry with bound anti-neprilysin antibody, was added to 10 ml culture supernatant and the sample was incubated for 5 hours at 4° C. After incubation, the sepharose was washed once with PBS and resuspended in 1200 μl 50 mM Tris-HCl, pH 7.5, 150 mM NaCl. […] The sepharose was pelleted and the concentration of purified protein in the supernatant was measured by absorbance at 280 nm. […] The Neprilysin enzymatic activity is determined in a fluorescence resonance energy transfer (FRET) assay. […] Following addition of all components to wells, plate was immediately placed into a fluorescent plate reader (Ascent) and signal was recorded for every minute for 20 minutes at the excitation 340 nm and emission 405 nm. The activity of enzyme was evaluated by calculating the velocity of reaction-Slope coefficient=Σ ΔRFU/Δt. […]

[5] = system: amyloid β peptide; assay: Two-compartment membrane experiment, degradation of amyloid β peptide; assay type: biochemical; details: degradation in one compartment connected through a membrane
Experimental: An experiment is performed to investigate the possibility to remove amyloid β peptide from one compartment by degradation in another compartment connected through a membrane. A similar experiment was conducted using an antibody as an amyloid β peptide agent. The experiment is described by DeMattos et al., (PNAS, 2001). By degrading the amyloid β peptide with neprilysin and/or NEP-Fc in one compartment the concentration of amyloid β peptide in the other compartment is decreased. Importantly, neprilysin or NEP-Fc cannot cross the membrane due to its high molecular weight (161.000 Da and 211.000 Da, respectively).

[6] = system: Ab1-42; details: purified Neprilysin; Howell et al., 1995; cited from earlier work

B1: Neprilysin: Aβ-degrading Zn-metallopeptidase; soluble extracellular domain (SEQ ID NO 1-4), commercial (R&D Systems) or produced in-house (protein, UniProt P08473 52-750, looked up)
extracellular domain: YDDGICKSSDCIKSAARLIQNMDATTEPCTDFFKYACGGWLKRNVIPETSSRYGNFDILRDELEVVLKDVLQEPKTEDIVAVQKAKALYRSCINESAIDSRGGEPLLKLLPDIYGWPVATENWEQKYGASWTAEKAIAQLNSKYGKKVLINLFVGTDDKNSVNHVIHIDQPRLGLPSRDYYECTGIYKEACTAYVDFMISVARLIRQEERLPIDENQLALEMNKVMELEKEIANATAKPEDRNDPMLLYNKMTLAQIQNNFSLEINGKPFSWLNFTNEIMSTVNISITNEEDVVVYAPEYLTKLKPILTKYSARDLQNLMSWRFIMDLVSSLSRTYKESRNAFRKALYGTTSETATWRRCANYVNGNMENAVGRLYVEAAFAGESKHVVEDLIAQIREVFIQTLDDLTWMDAETKKRAEEKALAIKERIGYPDDIVSNDNKLNNEYLELNYKEDEYFENIIQNLKFSQSKQLKKLREKVDKDEWISGAAVVNAFYSSGRNQIVFPAGILQPPFFSAQQSNSLNYGGIGMVIGHEITHGFDDNGRNFNKDGDLVDWWTQQSASNFKEQSQCMVYQYGNFSWDLAGGQHLNGINTLGENIADNGGLGQAYRAYQNYIKKNGEEKLLPGLDLNHKQLFFLNFAQVWCGTYRPEYAVNSIKTDVHSPGNFRIIGTLQNSAEFSEAFHCRKNSYMNPEKKCRVW
modifications: extracellular domain
In the case of B1, the “Amyloid β1-40 peptide degraded” value [1] is reported as 88%, the “Degradation of Aβ1-40 versus dose” value ([2]; 0-20 μg/ml neprilysin, 210 minutes at 37° C.) is reported as “dose dependent manner” and the “Degradation of Aβ1-40 over time” value ([2]; 5 μg/ml neprilysin, 0-360 minutes at 37° C.) is reported as “time-dependent manner”. For the same molecule, the “Degradation of Aβ1-42 over time” value [3] was “time-dependent manner”, the “Activity of purified protein with versus without added zinc” value [4] was “no difference in activity” and the “Concentration of amyloid β peptide in the other compartment” value [5] was “decreased”. The “Sites at which amyloid β peptide is cleaved in vitro” value [6] was “five sites”.
